Measured values reported in publication PMC7616425 (2024).

Assays:
[1] = molecular target: Alexa647-labeled RhoGDI1 L56V (bovine, UniProt P19803 1-204, L56V, Alexa647 acceptor (site not stated)); test: FRET
[2] = molecular target: Alexa647-labeled RhoGDI1 L56A (bovine, UniProt P19803 1-204, L56A, Alexa647 acceptor (site not stated)); test: FRET

B1: Cy3-labeled, prenylated Cdc42 (natural protein)
chain: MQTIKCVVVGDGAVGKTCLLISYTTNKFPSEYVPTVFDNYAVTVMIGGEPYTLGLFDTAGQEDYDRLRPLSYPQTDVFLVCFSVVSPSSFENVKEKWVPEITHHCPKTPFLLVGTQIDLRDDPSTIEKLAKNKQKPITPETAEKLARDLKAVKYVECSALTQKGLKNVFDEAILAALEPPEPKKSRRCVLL
modifications: prenylated (residue not stated); Cy3 donor (site not stated)
koff [1]: 0.003 s⁻¹
koff [2]: 0.08 s⁻¹
